Experimental data: patent US20140087995A1 (published 2014)
Numbered stars: 1 amine (or outer) side, 2 acyl side, 3 side chain; on linkers, the order of the positions; unused ones are H or OH. Bridge positions count the residues as written; N and C are the ends. Side chains are listed from the residue outwards. Ends that are not written are not given here. * marks the point of attachment. C20 diacid = O=C(O)CCCCCCCCCCCCCCCCCCC(=O)*; γGlu = O=C(O)[C@H](CCC(=O)[*:2])N[*:1]; AEEA = NCCOCCOCC(=O)O

T1: human calcitonin receptor (human, UniProt P30988 25-474)
T1 sequence (looked up): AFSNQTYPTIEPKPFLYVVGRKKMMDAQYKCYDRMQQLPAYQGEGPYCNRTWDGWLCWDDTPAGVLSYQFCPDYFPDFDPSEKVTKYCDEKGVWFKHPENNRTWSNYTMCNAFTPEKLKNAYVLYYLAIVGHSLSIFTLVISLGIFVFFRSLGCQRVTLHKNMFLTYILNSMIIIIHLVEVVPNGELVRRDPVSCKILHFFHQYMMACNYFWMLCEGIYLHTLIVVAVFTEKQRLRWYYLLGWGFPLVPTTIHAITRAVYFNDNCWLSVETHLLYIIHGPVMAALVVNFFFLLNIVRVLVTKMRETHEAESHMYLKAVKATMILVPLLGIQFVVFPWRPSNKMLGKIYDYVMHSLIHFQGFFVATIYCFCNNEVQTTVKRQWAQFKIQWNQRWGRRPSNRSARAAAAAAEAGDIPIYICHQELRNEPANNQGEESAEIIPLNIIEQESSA

T2: human amylin receptor (amylin 3(a) receptor: human calcitonin receptor co-expressed with RAMP-3) (human, UniProt P30988 25-474; O60896 24-148, limits assumed)
T2 sequence (looked up) 1: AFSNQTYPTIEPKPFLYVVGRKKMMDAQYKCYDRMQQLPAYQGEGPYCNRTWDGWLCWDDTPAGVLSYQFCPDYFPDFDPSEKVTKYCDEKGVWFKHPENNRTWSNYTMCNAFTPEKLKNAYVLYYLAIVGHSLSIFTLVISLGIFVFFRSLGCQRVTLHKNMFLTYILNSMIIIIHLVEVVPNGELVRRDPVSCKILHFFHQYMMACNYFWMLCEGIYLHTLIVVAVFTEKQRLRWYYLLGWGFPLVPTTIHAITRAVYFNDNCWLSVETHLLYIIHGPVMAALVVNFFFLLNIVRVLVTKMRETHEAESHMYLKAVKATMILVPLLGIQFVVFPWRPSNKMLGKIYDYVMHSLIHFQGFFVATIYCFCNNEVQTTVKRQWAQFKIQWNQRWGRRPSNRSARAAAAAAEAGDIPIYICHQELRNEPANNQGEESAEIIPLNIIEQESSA
T2 sequence (looked up) 2: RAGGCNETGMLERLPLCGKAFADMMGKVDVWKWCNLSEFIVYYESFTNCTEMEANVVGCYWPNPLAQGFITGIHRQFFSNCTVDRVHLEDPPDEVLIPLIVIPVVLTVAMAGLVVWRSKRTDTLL


What was measured:
[1] = target: T1, human calcitonin receptor; test: cell-based or functional assay
[2] = target: T2, human amylin receptor (amylin 3(a) …); test: cell-based or functional assay

| Binder | Ratio hCT/hAmylin funct. (hCTR EC50 against hAmylin-R EC50) [1] | hCTR funct. EC50 [1] | hAmylin-R funct. EC50 [2] |
| --- | --- | --- | --- |
| KCNTATCATQRLADFLRHSSK([γGlu-γGlu-C20 diacid])NFGAIPSSTNVGSDTY-NH2 (disulfide 2-7; N-terminus assumed; SMILES CC[C@H](C)[C@H](NC(=O)[C@H](C)NC(=O)CNC(=O)[C@H](Cc1ccccc1)NC(=O)[C@H](CC(N)=O)NC(=O)[C@H](CCCCNC(=O)CC[C@H](NC(=O)CC[C@H](NC(=O)CCCCCCCCCCCCCCCCCCC(=O)O)C(=O)O)C(=O)O)NC(=O)[C@H](CO)NC(=O)[C@H](CO)NC(=O)[C@H](Cc1c[nH]cn1)NC(=O)[C@H](CCCNC(=N)N)NC(=O)[C@H](CC(C)C)NC(=O)[C@H](Cc1ccccc1)NC(=O)[C@H](CC(=O)O)NC(=O)[C@H](C)NC(=O)[C@H](CC(C)C)NC(=O)[C@H](CCCNC(=N)N)NC(=O)[C@H](CCC(N)=O)NC(=O)[C@@H](NC(=O)[C@H](C)NC(=O)[C@@H]1CSSC[C@H](NC(=O)[C@@H](N)CCCCN)C(=O)N[C@@H](CC(N)=O)C(=O)N[C@@H]([C@@H](C)O)C(=O)N[C@@H](C)C(=O)N[C@@H]([C@@H](C)O)C(=O)N1)[C@@H](C)O)C(=O)N1CCC[C@H]1C(=O)N[C@@H](CO)C(=O)N[C@@H](CO)C(=O)N[C@H](C(=O)N[C@@H](CC(N)=O)C(=O)N[C@H](C(=O)NCC(=O)N[C@@H](CO)C(=O)N[C@@H](CC(=O)O)C(=O)N[C@H](C(=O)N[C@@H](Cc1ccc(O)cc1)C(N)=O)[C@@H](C)O)C(C)C)[C@@H](C)O, also called compound 59) | 5 | 1.95 nM | 0.389 nM |
| K([γGlu-C20 diacid])RCNTATCATQRLANFLRHSSPNFGAIPSSTNVGSHTY-NH2 (disulfide 3-8; N-terminus assumed; SMILES CC[C@H](C)[C@H](NC(=O)[C@H](C)NC(=O)CNC(=O)[C@H](Cc1ccccc1)NC(=O)[C@H](CC(N)=O)NC(=O)[C@@H]1CCCN1C(=O)[C@H](CO)NC(=O)[C@H](CO)NC(=O)[C@H](Cc1c[nH]cn1)NC(=O)[C@H](CCCNC(=N)N)NC(=O)[C@H](CC(C)C)NC(=O)[C@H](Cc1ccccc1)NC(=O)[C@H](CC(N)=O)NC(=O)[C@H](C)NC(=O)[C@H](CC(C)C)NC(=O)[C@H](CCCNC(=N)N)NC(=O)[C@H](CCC(N)=O)NC(=O)[C@@H](NC(=O)[C@H](C)NC(=O)[C@@H]1CSSC[C@H](NC(=O)[C@H](CCCNC(=N)N)NC(=O)[C@@H](N)CCCCNC(=O)CC[C@H](NC(=O)CCCCCCCCCCCCCCCCCCC(=O)O)C(=O)O)C(=O)N[C@@H](CC(N)=O)C(=O)N[C@@H]([C@@H](C)O)C(=O)N[C@@H](C)C(=O)N[C@@H]([C@@H](C)O)C(=O)N1)[C@@H](C)O)C(=O)N1CCC[C@H]1C(=O)N[C@@H](CO)C(=O)N[C@@H](CO)C(=O)N[C@H](C(=O)N[C@@H](CC(N)=O)C(=O)N[C@H](C(=O)NCC(=O)N[C@@H](CO)C(=O)N[C@@H](Cc1c[nH]cn1)C(=O)N[C@H](C(=O)N[C@@H](Cc1ccc(O)cc1)C(N)=O)[C@@H](C)O)C(C)C)[C@@H](C)O, 38 residues: N-terminal extension by Lys (-1K); also called compound 44) | 24 | 4.75 nM | 0.198 nM |
| {C20 diacid-γGlu}-GRCNTATCATQRLANFLRHSSPNFGAIPSSTNVGSHTY-NH2 (disulfide 3-8; SMILES CC[C@H](C)[C@H](NC(=O)[C@H](C)NC(=O)CNC(=O)[C@H](Cc1ccccc1)NC(=O)[C@H](CC(N)=O)NC(=O)[C@@H]1CCCN1C(=O)[C@H](CO)NC(=O)[C@H](CO)NC(=O)[C@H](Cc1c[nH]cn1)NC(=O)[C@H](CCCNC(=N)N)NC(=O)[C@H](CC(C)C)NC(=O)[C@H](Cc1ccccc1)NC(=O)[C@H](CC(N)=O)NC(=O)[C@H](C)NC(=O)[C@H](CC(C)C)NC(=O)[C@H](CCCNC(=N)N)NC(=O)[C@H](CCC(N)=O)NC(=O)[C@@H](NC(=O)[C@H](C)NC(=O)[C@@H]1CSSC[C@H](NC(=O)[C@H](CCCNC(=N)N)NC(=O)CNC(=O)CC[C@H](NC(=O)CCCCCCCCCCCCCCCCCCC(=O)O)C(=O)O)C(=O)N[C@@H](CC(N)=O)C(=O)N[C@@H]([C@@H](C)O)C(=O)N[C@@H](C)C(=O)N[C@@H]([C@@H](C)O)C(=O)N1)[C@@H](C)O)C(=O)N1CCC[C@H]1C(=O)N[C@@H](CO)C(=O)N[C@@H](CO)C(=O)N[C@H](C(=O)N[C@@H](CC(N)=O)C(=O)N[C@H](C(=O)NCC(=O)N[C@@H](CO)C(=O)N[C@@H](Cc1c[nH]cn1)C(=O)N[C@H](C(=O)N[C@@H](Cc1ccc(O)cc1)C(N)=O)[C@@H](C)O)C(C)C)[C@@H](C)O, 38 residues: N-terminal extension by Gly (-1G); also called compound 47) | 6 | 1.32 nM | 0.222 nM |

Other lines, results leading:

| Ratio hCT/hAmylin funct. (hCTR EC50 against hAmylin-R EC50) [1] | hCTR funct. EC50 [1] | hAmylin-R funct. EC50 [2] | Binder |
| --- | --- | --- | --- |
| 17.9 | 0.715 nM | 0.04 nM | K([γGlu-C20 diacid])CNTATCATQRLAHFLRHSSPNFGAIPSSTNVGSNTY-NH2 (disulfide 2-7; N-terminus assumed; SMILES CC[C@H](C)[C@H](NC(=O)[C@H](C)NC(=O)CNC(=O)[C@H](Cc1ccccc1)NC(=O)[C@H](CC(N)=O)NC(=O)[C@@H]1CCCN1C(=O)[C@H](CO)NC(=O)[C@H](CO)NC(=O)[C@H](Cc1c[nH]cn1)NC(=O)[C@H](CCCNC(=N)N)NC(=O)[C@H](CC(C)C)NC(=O)[C@H](Cc1ccccc1)NC(=O)[C@H](Cc1c[nH]cn1)NC(=O)[C@H](C)NC(=O)[C@H](CC(C)C)NC(=O)[C@H](CCCNC(=N)N)NC(=O)[C@H](CCC(N)=O)NC(=O)[C@@H](NC(=O)[C@H](C)NC(=O)[C@@H]1CSSC[C@H](NC(=O)[C@@H](N)CCCCNC(=O)CC[C@H](NC(=O)CCCCCCCCCCCCCCCCCCC(=O)O)C(=O)O)C(=O)N[C@@H](CC(N)=O)C(=O)N[C@@H]([C@@H](C)O)C(=O)N[C@@H](C)C(=O)N[C@@H]([C@@H](C)O)C(=O)N1)[C@@H](C)O)C(=O)N1CCC[C@H]1C(=O)N[C@@H](CO)C(=O)N[C@@H](CO)C(=O)N[C@H](C(=O)N[C@@H](CC(N)=O)C(=O)N[C@H](C(=O)NCC(=O)N[C@@H](CO)C(=O)N[C@@H](CC(N)=O)C(=O)N[C@H](C(=O)N[C@@H](Cc1ccc(O)cc1)C(N)=O)[C@@H](C)O)C(C)C)[C@@H](C)O, also called compound 70) [N^ε1-[(4S)-4-carboxy-4-(19-carboxynonadecanoylamino)butanoyl]-[His14,Arg17,Pro21,Pro27]-h-amylin] |
| 6.5 | 0.92 nM | 0.141 nM | K([AEEA-C20 diacid])CNTATCATQRLANFLRHSSPNFGAIPSSTNVGSNTY-NH2 (disulfide 2-7; N-terminus assumed; SMILES CC[C@H](C)[C@H](NC(=O)[C@H](C)NC(=O)CNC(=O)[C@H](Cc1ccccc1)NC(=O)[C@H](CC(N)=O)NC(=O)[C@@H]1CCCN1C(=O)[C@H](CO)NC(=O)[C@H](CO)NC(=O)[C@H](Cc1c[nH]cn1)NC(=O)[C@H](CCCNC(=N)N)NC(=O)[C@H](CC(C)C)NC(=O)[C@H](Cc1ccccc1)NC(=O)[C@H](CC(N)=O)NC(=O)[C@H](C)NC(=O)[C@H](CC(C)C)NC(=O)[C@H](CCCNC(=N)N)NC(=O)[C@H](CCC(N)=O)NC(=O)[C@@H](NC(=O)[C@H](C)NC(=O)[C@@H]1CSSC[C@H](NC(=O)[C@@H](N)CCCCNC(=O)COCCOCCNC(=O)CCCCCCCCCCCCCCCCCCC(=O)O)C(=O)N[C@@H](CC(N)=O)C(=O)N[C@@H]([C@@H](C)O)C(=O)N[C@@H](C)C(=O)N[C@@H]([C@@H](C)O)C(=O)N1)[C@@H](C)O)C(=O)N1CCC[C@H]1C(=O)N[C@@H](CO)C(=O)N[C@@H](CO)C(=O)N[C@H](C(=O)N[C@@H](CC(N)=O)C(=O)N[C@H](C(=O)NCC(=O)N[C@@H](CO)C(=O)N[C@@H](CC(N)=O)C(=O)N[C@H](C(=O)N[C@@H](Cc1ccc(O)cc1)C(N)=O)[C@@H](C)O)C(C)C)[C@@H](C)O, also called compound 43) [N^ε1-[2-[2-[2-(19-carboxynonadecanoylamino)ethoxy]ethoxy]acetyl]-[Arg17,Pro21,Pro27]-h-amylin] |
| 10.2 | 0.899 nM | 0.088 nM | {C20 diacid-γGlu}-GRCNTATCATQRLANFLRHSSPNFGAIPSSTNVGSNTY-NH2 (disulfide 3-8; SMILES CC[C@H](C)[C@H](NC(=O)[C@H](C)NC(=O)CNC(=O)[C@H](Cc1ccccc1)NC(=O)[C@H](CC(N)=O)NC(=O)[C@@H]1CCCN1C(=O)[C@H](CO)NC(=O)[C@H](CO)NC(=O)[C@H](Cc1c[nH]cn1)NC(=O)[C@H](CCCNC(=N)N)NC(=O)[C@H](CC(C)C)NC(=O)[C@H](Cc1ccccc1)NC(=O)[C@H](CC(N)=O)NC(=O)[C@H](C)NC(=O)[C@H](CC(C)C)NC(=O)[C@H](CCCNC(=N)N)NC(=O)[C@H](CCC(N)=O)NC(=O)[C@@H](NC(=O)[C@H](C)NC(=O)[C@@H]1CSSC[C@H](NC(=O)[C@H](CCCNC(=N)N)NC(=O)CNC(=O)CC[C@H](NC(=O)CCCCCCCCCCCCCCCCCCC(=O)O)C(=O)O)C(=O)N[C@@H](CC(N)=O)C(=O)N[C@@H]([C@@H](C)O)C(=O)N[C@@H](C)C(=O)N[C@@H]([C@@H](C)O)C(=O)N1)[C@@H](C)O)C(=O)N1CCC[C@H]1C(=O)N[C@@H](CO)C(=O)N[C@@H](CO)C(=O)N[C@H](C(=O)N[C@@H](CC(N)=O)C(=O)N[C@H](C(=O)NCC(=O)N[C@@H](CO)C(=O)N[C@@H](CC(N)=O)C(=O)N[C@H](C(=O)N[C@@H](Cc1ccc(O)cc1)C(N)=O)[C@@H](C)O)C(C)C)[C@@H](C)O, 38 residues: N-terminal extension by Gly (-1G); also called compound 46) [N^-1-[(4S)-4-carboxy-4-(19-carboxynonadecanoylamino)butanoyl]-Gly[Arg1,Arg17,Pro21,Pro27]-h-amylin] |
